Test results taken from patent publication US20160237119A1 (UNIVERSITY OF TOKYO, published 2016).
Bridges are numbered along the chain shown (N, C = ends). Roman numbers before positions name the chains, in order. Primed or numbered codes have the meaning given here. Where no end group is shown, it is not given here. [ ]: non-standard residue; d: D form. NMeW = CN[C@@H](Cc1c[nH]c2ccccc12)C(=O)O; NMeR = CN[C@@H](CCCNC(=N)N)C(=O)O; NMeF = CN[C@@H](Cc1ccccc1)C(=O)O; NMeT = CN[C@H](C(=O)O)[C@@H](C)O; NMeE = CN[C@@H](CCC(=O)O)C(=O)O; NMeQ = CN[C@@H](CCC(N)=O)C(=O)O; NMeD = CN[C@@H](CC(=O)O)C(=O)O; NMeN = CN[C@@H](CC(N)=O)C(=O)O; NMeV = CN[C@H](C(=O)O)C(C)C; NMeC = CN[C@@H](CS)C(=O)O; BMH′ = not defined here

B1: D4-3scr (peptide)
peptide: {CH2CO}-YERVNHLFRNQTWDRCG
modifications: thioether N-16
notes: Negative control; also called negative control peptide
B2: D4-3NMe (peptide)
peptide: {CH2CO}-YRQFN[NMeR]RTHEVWNLD[NMeC]G
modifications: thioether N-16
notes: also called NMe (N6 + N16); N-methylated D4-3
B3: N14, N-methylated D4-3 peptide (peptide)
peptide: {CH2CO}-YRQFNRRTHEVWNLDCG
modifications: thioether N-16; not fully specified (residues 1, 14); also: one N-methylated residue, position given only by label N14
B4: D5-4 dimeric peptide, linker Bis-MAL-PEG11 (peptide)
peptide 1: [dY]WYYAWDQTYKAFPCG
peptide 2: [dY]WYYAWDQTYKAFPCG
modifications: thioether I:N-I:15, II:N-II:15 via Ac; not fully specified (N-terminus, bridges); also: dimer: two copies joined by Bis-MAL-PEG11 through an added C-terminal Cys (handle not in letters)
notes: Two macrocyclic peptides joined through their C-terminal Cys by Bis-MAL-PEG11; also called D5-4 Bis-MAL-PEG11; not shown: C-terminal handle of each copy (spacer residue plus Cys)
B5: D5-4 dimeric peptide, linker BMH (peptide)
peptide 1: [dY]WYYAWDQTYKAFPCG
peptide 2: [dY]WYYAWDQTYKAFPCG
modifications: thioether I:N-I:15, II:N-II:15 via Ac; not fully specified (N-terminus, bridges); also: dimer: two copies joined by BMH through an added C-terminal Cys (handle not in letters)
notes: Two macrocyclic peptides joined through their C-terminal Cys by BMH; also called D5-4 BMH; not shown: C-terminal handle of each copy (spacer residue plus Cys)
B6: D5-4 dimeric peptide, linker Bis-MAL-PEG3 (peptide)
peptide 1: [dY]WYYAWDQTYKAFPCG
peptide 2: [dY]WYYAWDQTYKAFPCG
modifications: thioether I:N-I:15, II:N-II:15 via Ac; not fully specified (N-terminus, bridges); also: dimer: two copies joined by Bis-MAL-PEG3 through an added C-terminal Cys (handle not in letters)
notes: Two macrocyclic peptides joined through their C-terminal Cys by Bis-MAL-PEG3; also called D5-4 Bis-MAL-PEG3; not shown: C-terminal handle of each copy (spacer residue plus Cys)
B7: D4-3NMe dimeric peptide, linker Bis-MAL-PEG11 (peptide)
peptide: {CH2CO}-YRQFN[NMeR]RTHEVWNLD[NMeC]GC(Bis‑MAL‑PEG11)
modifications: thioether N-16; also: dimer via Bis-MAL-PEG11
notes: also called D4-3NMe Bis-MAL-PEG11; dimerized N-methylated D4-3 peptide
B8: D4-3 dimeric peptide, linker Bis-MAL-PEG3 (peptide)
peptide: {CH2CO}-YRQFNRRTHEVWNLDCGC(Bis‑MAL‑PEG3)
modifications: thioether N-16; not fully specified (residue 1); also: dimer: two copies joined by Bis-MAL-PEG3 at Cys18
notes: Two macrocyclic peptides joined through their C-terminal Cys by Bis-MAL-PEG3; also called D4-3 Bis-MAL-PEG3
B9: D4-3 dimeric peptide, linker BMH (peptide)
peptide: {CH2CO}-YRQFNRRTHEVWNLDCGC(BMH′)
modifications: thioether N-16; not fully specified (residue 1); also: dimer: two copies joined by BMH at Cys18
notes: Two macrocyclic peptides joined through their C-terminal Cys by BMH; also called D4-3 BMH
B10: D4-3 dimeric peptide, linker Bis-MAL-PEG11 (peptide)
peptide: {CH2CO}-YRQFNRRTHEVWNLDCGC(Bis‑MAL‑PEG11)
modifications: thioether N-16; not fully specified (residue 1); also: dimer: two copies joined by Bis-MAL-PEG11 at Cys18
notes: Two macrocyclic peptides joined through their C-terminal Cys by Bis-MAL-PEG11; also called D4-3 Bis-MAL-PEG11
B11: D4-3scr dimeric peptide, linker BMH (peptide)
peptide: {CH2CO}-YERVNHLFRNQTWDRCGC(BMH′)
modifications: thioether N-16; also: dimer: two copies joined by BMH at Cys18
notes: Negative control dimer; also called D4-3scr BMH

The binders below were run against T1, c-Met-Fc chimera protein (UniProt P08581 25-932, limits assumed) (assay: SPR (Biacore), c-Met-Fc captured by anti-IgG on CM5, single-cycle kinetics).
T1 construct: Captured on the SPR chip by an anti-IgG antibody; not shown: Fc part
Protocol: (§1) As a sensor chip, Sensor Chip CM5 was used and an anti-IgG antibody was immobilized on a measurement lane and a control lane by using Human Antibody Capture Kit.
(§2) On the measurement lane was immobilized c-Met-Fc, while on the control lane was immobilized Fc protein.
(§3) As a running buffer, HBS-EP+ buffer containing 0.1% DMSO was used and a dissociation constant of the thioether macrocyclic peptide was calculated at 5 different concentrations by using the single-kinetics method.

T1 sequence (P08581 25-932 limits assumed, change not shown): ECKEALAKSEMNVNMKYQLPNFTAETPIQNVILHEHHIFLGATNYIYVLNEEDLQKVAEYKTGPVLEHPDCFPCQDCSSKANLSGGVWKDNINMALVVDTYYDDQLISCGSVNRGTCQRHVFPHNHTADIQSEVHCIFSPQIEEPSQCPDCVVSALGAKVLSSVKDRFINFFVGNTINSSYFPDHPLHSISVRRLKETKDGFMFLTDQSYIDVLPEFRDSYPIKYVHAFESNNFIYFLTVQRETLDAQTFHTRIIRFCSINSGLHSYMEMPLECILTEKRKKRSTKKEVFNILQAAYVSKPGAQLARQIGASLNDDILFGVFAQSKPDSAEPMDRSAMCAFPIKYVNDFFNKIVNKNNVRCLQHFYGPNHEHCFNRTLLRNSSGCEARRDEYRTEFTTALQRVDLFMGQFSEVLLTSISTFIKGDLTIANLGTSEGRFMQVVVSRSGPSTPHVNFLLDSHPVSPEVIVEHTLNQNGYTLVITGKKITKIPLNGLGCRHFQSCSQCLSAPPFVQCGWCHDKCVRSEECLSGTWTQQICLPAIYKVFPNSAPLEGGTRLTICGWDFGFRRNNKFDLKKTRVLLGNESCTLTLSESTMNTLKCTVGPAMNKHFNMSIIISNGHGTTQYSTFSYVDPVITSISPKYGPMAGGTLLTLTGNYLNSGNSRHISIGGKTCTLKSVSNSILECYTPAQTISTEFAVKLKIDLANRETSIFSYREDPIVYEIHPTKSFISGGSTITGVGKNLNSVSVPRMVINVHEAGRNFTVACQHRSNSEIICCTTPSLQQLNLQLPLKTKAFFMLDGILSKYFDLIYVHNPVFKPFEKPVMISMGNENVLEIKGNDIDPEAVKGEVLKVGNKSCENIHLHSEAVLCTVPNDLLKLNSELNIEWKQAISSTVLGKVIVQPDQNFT

| binding result | Kd [nM] | koff [s⁻¹] | kon [M⁻¹ s⁻¹] | Binder |
| --- | --- | --- | --- | --- |
| no binding |  |  |  | B1 |
|  | 4.6 | 0.021 | 4.5e+06 | {CH2CO}-[dY]WYYAWDQTYKAFPCG (thioether N-15, also called D5-4 peptide; D5-4 Monomer) [D5-4] |
|  | 5.2 | 0.0021 | 390000 | B2 |
|  | 3.4 | 0.008 | 2.4e+06 | {CH2CO}-YRQFNRRTHEVWNLDCG (thioether N-16; not fully specified, also called D4-3 peptide; D4-3 Monomer) [D4-3] |
|  | 5.4 | 0.012 | 2.3e+06 | {CH2CO}-YISWNEFNSPNWRFITCG (thioether N-17, also called L5-2 peptide; L5-2 Monomer) [L5-2] |

Each binder was assayed against T1, c-Met-Fc chimera protein (assay: SPR presumed (Biacore as in 9-1; method not given), c-Met-Fc on chip).

| Kd [nM] | koff [s⁻¹] | kon [M⁻¹ s⁻¹] | Binder |
| --- | --- | --- | --- |
| 160 | 0.046 | 300000 | {CH2CO}-YRQFNRRTHEVWNL[NMeD]CG (thioether N-16 (inferred)) [N15, N-methylated D4-3 peptide] |
| 33 | 0.0026 | 78000 | {CH2CO}-YRQFNRRTHEVW[NMeN]LDCG (thioether N-16) [N13, N-methylated D4-3 peptide] |
| 10 | 0.01 | 980000 | {CH2CO}-YRQFNRRTHEVWNLD[NMeC]G (thioether N-16 (inferred)) [N16, N-methylated D4-3 peptide] |
| 160 | 0.0086 | 55000 | {CH2CO}-YRQFNRRTHEV[NMeW]NLDCG (thioether N-16) [N12, N-methylated D4-3 peptide] |
| 120 | 0.0031 | 27000 | {CH2CO}-YR[NMeQ]FNRRTHEVWNLDCG (thioether N-16 (inferred)) [N3, N-methylated D4-3 peptide] |
| 350 | 0.0051 | 15000 | {CH2CO}-YRQFNRRTHE[NMeV]WNLDCG (thioether N-16) [N11, N-methylated D4-3 peptide] |
| 130 |  |  | {CH2CO}-YRQFNR[NMeR]THEVWNLDCG (thioether N-16) [D4-3-N7] |
| 14 | 0.01 | 710000 | {CH2CO}-Y[NMeR]QFNRRTHEVWNLDCG (thioether N-16 (inferred)) [N2, N-methylated D4-3 peptide] |
| 220 | 0.006 | 27000 | {CH2CO}-YRQFNRR[NMeT]HEVWNLDCG (thioether N-16) [D4-3-N8] |
| 300 | 0.0075 | 25000 | {CH2CO}-YRQFNRRTH[NMeE]VWNLDCG (thioether N-16) [N10, N-methylated D4-3 peptide] |
| 34 | 0.0041 | 120000 | {CH2CO}-YRQFN[NMeR]RTHEVWNLDCG (thioether N-16) [D4-3-N6] |
| 200 | 0.0039 | 19000 | {CH2CO}-YRQF[NMeN]RRTHEVWNLDCG (thioether N-16 (inferred)) [N5, N-methylated D4-3 peptide] |
| 8.5 | 0.011 | 1.3e+06 | {CH2CO}-YRQFNRRTHEVWNLDCG (thioether N-16; not fully specified, also called D4-3 peptide; D4-3 Monomer) [D4-3] |
| 290 | 0.0059 | 21000 | B3 |
| 79 | 0.0096 | 120000 | {CH2CO}-YRQ[NMeF]NRRTHEVWNLDCG (thioether N-16 (inferred)) [N4, N-methylated D4-3 peptide] |

Molecular target: T1, c-Met-Fc chimera protein
Assay: SPR (Biacore), c-Met-Fc captured by anti-IgG on CM5, single-cycle kinetics
Remark: another data set of the same source
Protocol: as §1, §2, §3

| Kd [nM] | koff [s⁻¹] | kon [M⁻¹ s⁻¹] | binding result | Binder |
| --- | --- | --- | --- | --- |
| 2.1 | 0.011 | 5.3e+06 |  | B4 |
| 12 | 0.00055 | 46000 |  | B5 |
| 4.7 | 0.00054 | 120000 |  | B6 |
| 0.81 | 0.0004 | 490000 |  | B7 |
| 0.64 | 0.0007 | 1.1e+06 |  | B8 |
| 4.6 | 0.021 | 4.5e+06 |  | {CH2CO}-[dY]WYYAWDQTYKAFPCG (thioether N-15, also called D5-4 peptide; D5-4 Monomer) [D5-4] |
| 0.45 | 0.00091 | 2e+06 |  | B9 |
| 5.2 | 0.0021 | 390000 |  | B2 |
| 0.9 | 0.0011 | 1.2e+06 |  | B10 |
|  |  |  | no binding | B11 |
| 3.4 | 0.008 | 2.4e+06 |  | {CH2CO}-YRQFNRRTHEVWNLDCG (thioether N-16; not fully specified, also called D4-3 peptide; D4-3 Monomer) [D4-3] |
| 5.4 | 0.012 | 2.3e+06 |  | {CH2CO}-YISWNEFNSPNWRFITCG (thioether N-17, also called L5-2 peptide; L5-2 Monomer) [L5-2] |

Molecular target: T1, c-Met-Fc chimera protein
Assay: SPR presumed (Biacore as in 9-1; method not given), c-Met-Fc on chip
Remark: another data set of the same source

| Kd [nM] | koff [s⁻¹] | kon [M⁻¹ s⁻¹] | Binder |
| --- | --- | --- | --- |
| 10 | 0.01 | 980000 | {CH2CO}-YRQFNRRTHEVWNLD[NMeC]G (thioether N-16 (inferred)) [N16, N-methylated D4-3 peptide] |
| 34 | 0.0041 | 120000 | {CH2CO}-YRQFN[NMeR]RTHEVWNLDCG (thioether N-16) [D4-3-N6] |
| 5.2 | 0.0021 | 390000 | B2 |
| 8.5 | 0.011 | 1.3e+06 | {CH2CO}-YRQFNRRTHEVWNLDCG (thioether N-16; not fully specified, also called D4-3 peptide; D4-3 Monomer) [D4-3] |
